Drawing on the supplement of paper PMC10567573, this text covers protein stability index for 94 variants.

The chains are these.
B1: TRIM29 (parent)
chain: FAEKGELRKSIFSESRKPTVSIME
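Note: lentivirally expressed fusions sorted by FACS into six bins by GFP to DsRed ratio, PSI derived from sequencing read proportions per bin multiplied by bin number.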

Variants of B1 are the subject of this series. As to the kind of experiment: protein stability index of a GFP-peptide fusion (GPS, HEK-293T) (PSI 1-6); higher = more stable. Conditions: c terminus: a fixed tail appended.
As for FAEKGELRKSIFSESRKLTVSIME [P18L], the protein stability index was 1.98.
As for FAEKGELRKSIFSESRKITVSIME [P18I], the figure is 2.06; as for FAEKGELRKSIFSESRKVTVSIME [P18V], 2.5.
Next, FAEKGELRKSIFSESRKCTVSIME [P18C]: 2.21; FAEKGELRKSIFSESRKGTVSIME [P18G]: 2.59.
As for FAEKGELRKSIFSESRKWTVSIME [P18W], the protein stability index amounted to 2.83.
In the case of FAEKGELRKSIFSESRKYTVSIME [P18Y], the protein stability index was determined as 2.79.
Next, FAEKGELRKSIFSESRKATVSIME [P18A]: 2.01; FAEKGELRKSIFSESRKHTVSIME [P18H]: 1.94.
Take FAEKGELRKSIFSESRKQTVSIME [P18Q]: the protein stability index was 1.34.
Next, FAEKGELRKSIFSESRKRTVSIME [P18R]: 2.32; FAEKGELRKSIFSESRKKTVSIME [P18K]: 1.41.
Next, FAEKGELRKSIFSESRKETVSIME [P18E]: 2.35; FAEKGELRKSIFSESRKMTVSIME [P18M]: 2.1.
As for FAEKGELRKSIFSESRKNTVSIME [P18N], the protein stability index is 2.59.
As for FAEKGELRKSIFSESRKDTVSIME [P18D], the figure is 2.32; as for FAEKGELRKSIFSESRKFTVSIME [P18F], 2.31.
For FAEKGELRKSIFSESRKTTVSIME [P18T], the protein stability index worked out at 1.85.
Next, FAEKGELRKSIFSESRKSTVSIME [P18S]: 1.46; FAEKGELRKSIFSESDKPTVSIME [R16D]: 2.04; FAEKGELRKSIFSESFKPTVSIME [R16F]: 1.96.
As for FAEKGELRKSIFSESNKPTVSIME [R16N], the figure is 1.5; as for FAEKGELRKSIFSESEKPTVSIME [R16E], 1.3.
As for FAEKGELRKSIFSESKKPTVSIME [R16K], the figure is 2.35.
Regarding FAEKGELRKSIFSESGKPTVSIME [R16G], the protein stability index was 1.99.
As for FAEKGELRKSIFSESHKPTVSIME [R16H], the figure is 1.74; as for FAEKGELRKSIFSESCKPTVSIME [R16C], 1.69; as for FAEKGELRKSIFSESMKPTVSIME [R16M], 2.02.
Next, FAEKGELRKSIFSESTKPTVSIME [R16T]: 1.6.
As for FAEKGELRKSIFSESQKPTVSIME [R16Q], the figure is 1.6; as for FAEKGELRKSIFSESPKPTVSIME [R16P], 1.96; as for FAEKGELRKSIFSESAKPTVSIME [R16A], 1.49.
For FAEKGELRKSIFSESWKPTVSIME [R16W], the protein stability index is 2.29.
FAEKGELRKSIFSESLKPTVSIME [R16L]: the protein stability index came out at 1.99.
Regarding FAEKGELRKSIFSESSKPTVSIME [R16S], the protein stability index turned out to be 1.8.
As for FAEKGELRKSIFSESIKPTVSIME [R16I], the figure is 1.78; as for FAEKGELRKSIFSESYKPTVSIME [R16Y], 1.4.
Regarding FAEKGELRKSIFSESVKPTVSIME [R16V], the protein stability index is 2.18.
Next, FAEKGELRKSIFSESRLPTVSIME [K17L]: 2.86.
As for FAEKGELRKSIFSESRRPTVSIME [K17R], the figure is 1.53; as for FAEKGELRKSIFSESRCPTVSIME [K17C], 1.28; as for FAEKGELRKSIFSESRGPTVSIME [K17G], 1.99.
With FAEKGELRKSIFSESRWPTVSIME [K17W], the protein stability index is 2.22.
Next, FAEKGELRKSIFSESRIPTVSIME [K17I]: 2; FAEKGELRKSIFSESREPTVSIME [K17E]: 1.67.
Next, FAEKGELRKSIFSESRQPTVSIME [K17Q]: 1.68; FAEKGELRKSIFSESRFPTVSIME [K17F]: 2.05; FAEKGELRKSIFSESRSPTVSIME [K17S]: 1.82.
Next, FAEKGELRKSIFSESRTPTVSIME [K17T]: 2.12; FAEKGELRKSIFSESRVPTVSIME [K17V]: 2.46.
With FAEKGELRKSIFSESRNPTVSIME [K17N], the protein stability index was 1.39.
With FAEKGELRKSIFSESRAPTVSIME [K17A], the protein stability index is 2.43.
Next, FAEKGELRKSIFSESRHPTVSIME [K17H]: 2.11; FAEKGELRKSIFSESRDPTVSIME [K17D]: 1.65.
As to FAEKGELRKSIFSESRMPTVSIME [K17M], the protein stability index was 1.33.
On to FAEKGELRKSIFSESRYPTVSIME [K17Y], for which the protein stability index was 2.23.
Next, FAEKGELRKSIFSESRPPTVSIME [K17P]: 1.54; FAEKGELRKSIFSVSRKPTVSIME [E14V]: 2.05.
For FAEKGELRKSIFSYSRKPTVSIME [E14Y], the protein stability index came out at 1.7.
Consider FAEKGELRKSIFSWSRKPTVSIME [E14W], for which the protein stability index is 1.76.
As for FAEKGELRKSIFSELRKPTVSIME [S15L], the figure is 1.96; as for FAEKGELRKSIFSEQRKPTVSIME [S15Q], 2.1.
Next, FAEKGELRKSIFSEARKPTVSIME [S15A]: 1.75.
As for FAEKGELRKSIFSEVRKPTVSIME [S15V], the figure is 2.3; as for FAEKGELRKSIFSERRKPTVSIME [S15R], 1.3; as for FAEKGELRKSIFSETRKPTVSIME [S15T], 2.31.
Turning to FAEKGELRKSIFSEIRKPTVSIME [S15I], the protein stability index was 1.56.
On to FAEKGELRKSIFSENRKPTVSIME [S15N], for which the protein stability index was 1.64.
As for FAEKGELRKSIFSEFRKPTVSIME [S15F], the figure is 2.3.
Next, FAEKGELRKSIFSEKRKPTVSIME [S15K]: 2; FAEKGELRKSIFSEERKPTVSIME [S15E]: 2.01.
As for FAEKGELRKSIFSEPRKPTVSIME [S15P], the figure is 2.71.
Consider FAEKGELRKSIFSEMRKPTVSIME [S15M], for which the protein stability index stood at 2.04.
As for FAEKGELRKSIFSECRKPTVSIME [S15C], the figure is 1.59; as for FAEKGELRKSIFSEWRKPTVSIME [S15W], 2.29.
Consider FAEKGELRKSIFSEYRKPTVSIME [S15Y], for which the protein stability index came out at 2.04.
Next, FAEKGELRKSIFSEGRKPTVSIME [S15G]: 1.8; FAEKGELRKSIFSEHRKPTVSIME [S15H]: 1.52.
With FAEKGELRKSIFSEDRKPTVSIME [S15D], the protein stability index was 2.26.
As for FAEKGELRKSIFSESRKPEVSIME [T19E], the figure is 1.8; as for FAEKGELRKSIFSESRKPIVSIME [T19I], 1.17; as for FAEKGELRKSIFSESRKPGVSIME [T19G], 1.61.
Next, FAEKGELRKSIFSESRKPFVSIME [T19F]: 1.59; FAEKGELRKSIFSESRKPQVSIME [T19Q]: 2.26.
Regarding FAEKGELRKSIFSESRKPLVSIME [T19L], the protein stability index turned out to be 1.6.
Regarding FAEKGELRKSIFSESRKPRVSIME [T19R], the protein stability index was 2.02.
Turning to FAEKGELRKSIFSESRKPHVSIME [T19H], the protein stability index came to 1.75.
Consider FAEKGELRKSIFSESRKPDVSIME [T19D], for which the protein stability index turned out to be 2.15.
Turning to FAEKGELRKSIFSESRKPCVSIME [T19C], the protein stability index came to 2.39.
For the variant FAEKGELRKSIFSESRKPAVSIME [T19A], the protein stability index was found to be 3.
Next, FAEKGELRKSIFSESRKPNVSIME [T19N]: 1.72; FAEKGELRKSIFSESRKPMVSIME [T19M]: 2.36.
As for FAEKGELRKSIFSESRKPPVSIME [T19P], the figure is 2.39; as for FAEKGELRKSIFSESRKPKVSIME [T19K], 2.58.
